B1: PrkD (Bacillus subtilis 168 | BSU_02030) (SEQ ID NO: 7) (protein)
chain: MALKLLKKLLFDRPLKNGVILNHQYKIEECLGMGGYGLVYLCTDILAQTPYVLKQLRPTKAKKEKEKVRFQQEIKLLKNIHHPQIPGFIDEFIIDGQAYYVMQFIEGENIEELLFFRKQPFTELMALQLISQLLEIIEYLHDRLIFHSDIRTPNIIINDGRLCLIDFGLAKQLTPEEMEEIKVRKQDDFFDLGETLLFLLYSQYKGKKKKNGTWLEELTLTKEVTLLLKRLLGIEEEYQHTASIREDLNRAIQSVT
B2: YabT (GenBank: SPU13583.1) (SEQ ID NO: 5) (protein)
chain: MLNWTPKLQSLSTPFAKLSTAAITPTGPAIREATLQFEKYAQEGACWQMMNDALTSLACSLKPGTTIKGKWNGNTYTLRKQLGKGANGIVYLAETSDGHVALKVSDDSLSITSEVNVLKSFSKAQSVTMGPSFFDTDDAYIPSANTKVSFYAMEYIKGPLLLKYVSDKGAEWIPVLMIQLLSSLSVLHQQGWIFGDLKPDNLIVTGPPARIRCIDVGGTTKEGRAIKEYTEFYDRGYWGYGTRKAEPSYDLFAVAMIMINSVHKKEFKKTNQPKEQLRSLIEGNPLLQKYKKALFSALNGDYQSADEMKKDMLDAGQKAAQRKQPIKASPQPATRQRQQKPRQGKITKTRYTPKQKPAKSGGLFETTLIVISVLALYFAYIIFFLI
B3: PKNB1_Cgl2751 (Corynebacterium glutamicum) (SEQ ID NO: 9) (protein)
chain: MYEVLGVIAHGGMGWIYLANDRNVSGRIVVLKGMMAQSSVQDQGTAEAEREFLADITHPGIVKAYNFIDDPRVPGGFIVMEYVNGPSLKDRCKAQPDGVLRVDLAIGYILELLPAMDYLHQRGVVYNDLKPENVIATEDQVKLIDLGAVTGIGAFGYIYGTKGFQAPEVATHGPSISSDIFTIGRTLAALTMPLPVEDGVLAPGIPSPKNSPLLRRHLSFYRLLQRATADDPQHRFRNVSELRTQLYGVLREILAVRDGKQYPPQHSLFSPQRSTFGTKHLVF
B4: PrkC (Bacillus subtilis) (SEQ ID NO: 8) (protein)
chain: MSGPVPSRARVYTDVNTHRPREYWDYESHVVEWGNQDDYQLVRKLGRGKYSEVFEAINITNNEKVVVKILKPVKKKKIKREIKILENLRGGPNIITLADIVKDPVSRTPALVFEHVNNTDFKQLYQTLTDYDIRFYMYEILKALDYCHSMGIMHRDVKPHNVMIDHEHRKLRLIDWGLAEFYHPGQEYNVRVASRYFKGPELLVDYQMYDYSLDMWSLGCMLASMIFRKEPFFHGHDNYDQLVRIAKVLGTEDLYDYIDKYNIELDPRFNDILGRHSRKRWERFVHSENQHLVSPEALDFLDKLLRYDHQSRLTAREAMEHPYFYTVVKDQARMGSSSMPGGSTPVSSANMMSGISSVPTPSPLGPLAGSPVIAAANPLGMPVPAAAGAQ

Experiments:
[1] = biological target: T1, Bovine Alpha-s1-casein (SEQ ID NO: 1)
T1 chain: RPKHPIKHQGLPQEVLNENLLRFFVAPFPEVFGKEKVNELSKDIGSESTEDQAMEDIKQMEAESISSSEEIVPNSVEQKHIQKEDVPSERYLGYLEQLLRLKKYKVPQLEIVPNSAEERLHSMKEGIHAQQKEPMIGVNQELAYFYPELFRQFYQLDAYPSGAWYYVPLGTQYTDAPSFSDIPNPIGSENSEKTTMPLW

[2] = biological target: T2, Bovine Beta-casein (SEQ ID NO: 3)
T2 chain: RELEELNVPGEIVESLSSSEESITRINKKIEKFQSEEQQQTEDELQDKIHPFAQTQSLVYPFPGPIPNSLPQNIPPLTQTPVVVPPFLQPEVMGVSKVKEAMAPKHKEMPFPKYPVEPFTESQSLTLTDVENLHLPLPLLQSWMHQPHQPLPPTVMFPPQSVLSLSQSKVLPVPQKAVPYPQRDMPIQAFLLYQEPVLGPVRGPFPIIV

Protein	number of phosphorylated sites similar to native phosphorylation sites, MS [1]	number of sites phosphorylated, in vitro kinase reaction, MS [1]	phosphorylation at *S56 (native site), MS grade, in vitro kinase reaction [1]	phosphorylation at *S61 (native site), MS grade, in vitro kinase reaction [1]	phosphorylation at *S63 (native site), MS grade, in vitro kinase reaction [1]	phosphorylation at *S79 (native site), MS grade, in vitro kinase reaction [1]	phosphorylation at *S81 (native site), MS grade, in vitro kinase reaction [1]	phosphorylation at *S82 (native site), MS grade, in vitro kinase reaction [1]	phosphorylation at *S83 (native site), MS grade, in vitro kinase reaction [1]	phosphorylation at *S90 (native site), MS grade, in vitro kinase reaction [1]	phosphorylation at *S130 (native site), MS grade, in vitro kinase reaction [1]	phosphorylation at S103, MS grade, in vitro kinase reaction [1]	phosphorylation at S137, MS grade, in vitro kinase reaction [1]	phosphorylation at Y159, MS grade, in vitro kinase reaction [1]	number of phosphorylated sites similar to native phosphorylation sites, MS [2]	number of sites phosphorylated, in vitro kinase reaction, MS [2]	phosphorylation at *S30 (native site), MS grade, in vitro kinase reaction [2]	phosphorylation at *S32 (native site), MS grade, in vitro kinase reaction [2]	phosphorylation at *S50 (native site), MS grade, in vitro kinase reaction [2]	phosphorylation at T39, MS grade, in vitro kinase reaction [2]	other results
B1	with 9 and 8 sites showing similarity to native phosphorylation sites	PrkD and YabT phosphorylated 13 and 10 sites, respectively	++	+	+	+	+	+	+	+	+++	+	+	+	with 3 sites showing similarity to native phosphorylation sites	PrkD and YabT phosphorylated 5 sites each	+	+	+	+	phosphorylation at Y161, MS grade, in vitro kinase reaction [1]: +; phosphorylation at S337, MS grade, in vitro kinase reaction [2]: +
B2	with 9 and 8 sites showing similarity to native phosphorylation sites	PrkD and YabT phosphorylated 13 and 10 sites, respectively	+++	++	++	+++	+++	+++	+++	++		+	+		with 3 sites showing similarity to native phosphorylation sites	PrkD and YabT phosphorylated 5 sites each	++	++	++	++	phosphorylation at T56, MS grade, in vitro kinase reaction [2]: +
B3		PKNB and PrkC phosphorylated 6 sites in αs1-casein each									+	+	+	+		PKNB and PrkC phosphorylated 2 sites in β-casein each	+			+++	number of phosphorylated sites similar to native bovine phosphorylation sites, MS [1]: 1 sites; phosphorylation at Y109, MS grade, in vitro kinase reaction [1]: +; phosphorylation at Y188, MS grade, in vitro kinase reaction [1]: +; number of phosphorylated sites similar to native bovine phosphorylation sites, MS [2]: 1 sites
B4		PKNB and PrkC phosphorylated 6 sites in αs1-casein each	+								+	+	+	+		PKNB and PrkC phosphorylated 2 sites in β-casein each	+			++	number of phosphorylated sites similar to native bovine phosphorylation sites, MS [1]: 2 sites; phosphorylation at Y109, MS grade, in vitro kinase reaction [1]: +; number of phosphorylated sites similar to native bovine phosphorylation sites, MS [2]: 1 sites

— patent US20250206792
